From the RNAGym collection of RNA variant scans (doi:10.1073/pnas.2313332121)

B1: TPR t1 (parent)
chain: GACCAAUCUGCCCUCAGAGCUCGAGAACAUCUUCGGAUGCAGAGGAGGCAGGCUUCGGUGGCGCGAUAGCGCCAACGUCCUCAACCUCCAAUGCAUCCCACCACAUGAUGAUGCCUGAAGAGCCUUGGUUUUUUG

Variants of: B1
Assay: polymerase ribozyme fitness, log enrichment relative to wild type (log ratio); higher = more active; in vitro selection for triplet polymerase activity
Procedure, shortened: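 Frozen incubation at −7 °C formed the core of a single, triplicate in vitro selection round applied to PCR-built, transcribed mutant libraries of each subunit of a heterodimeric triplet polymerase ribozyme. Extended constructs were gel-excised, captured with streptavidin beads and amplified by RT-PCR, and input and output libraries were Illumina-sequenced with a filter of ≥10 input reads and ≥1 read per output. Fitness is the logarithm of genotype enrichment relative to wild-type enrichment, with inverse-variance-weighted replicate averaging, and the logarithm is base 2.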

Variant	polymerase ribozyme fitness (log ratio)
C11G C31A	-4.96
C11A A83G C85U G120C	0.982
G10C G35A G69U U81G C82G C123A	-2.07
C11G A74U A108G	-2.79
G10A C20U G57U G113U	-2.28
C11A C56A	-1.49
C11A A18U C49A C123G	-2.08
C11A U59A	-1.59
G10A G44U U54C G63A C70A U130C	-4.01
G10A C15U	-2.8
G10U U38G A41G	-1.27
C11G A27G	-1.52
C11A G47A G77A	-2.62
C11G C56U	0.107
C11G C76A U112A G117C G128C U134G	-5.47
C11G C20U	-0.656
C11G C72G	-0.147
G10A U132A	0.124
C11A G69U	-0.0927
C11A G69A	-4.25
G10C A46C C101A C123G U130A	-1.67

Variant	polymerase ribozyme fitness (log ratio)
C11G C22G G36A A83C	-3.71
G10U G35A G117C	-6.56
G10A C70G U87A C123A	-4.27
C11A A27C	-5.15
C11A G42U C70U	-3.6
C11G C73G C85A A111G	-1.47
C11G C53U C82U	0.05
G10C G48C C102U	-2.77
G10U U92G C94U U133A	-2.28
G10U U21G C64A A95G C123U U125A	-6.83
C11G C15A U106A G117U G127U	-0.216
C11A G69A C86U	-3.51
G10C G52U C53A	-1.16
C11A G48C G71A U87G U106G A121U	-2.38
G10U C28U C53U C73U U96C C104A G110A	0.843
C11G A29G C72G C123A	-0.598
C11A G69U C70U	-2.77
G10C C13G	-0.638
G10A U81A	-0.546
G10A G44U	-1.5
C11G A41U G47C U59A A66U	-6.01

Variant	polymerase ribozyme fitness (log ratio)
G10C C89G A121C	0.737
C11G A105U	-2.2
G10C A43U C62A C114U U116C U133G	-6.43
C11A U21G G120U C123A	-0.701
G10U A37U G52A G77C G120U	0.713
C11A G71C G113A	-2.46
G10U A37U G120C U129C	0.637
C11G C70A A95C U112A U132C	-1.46
C11A G52A G110U G135U	-5.37
G10A C97U C101U A105G U130G	-5.15
G10C A46G C124U	-0.222
C11G A18C C49A C88G U109A	-6.8
G10U C53U A91U U92A C97U	-6.09
G10A U96A	-0.657
G10U G23U A26G G63A C114G	-5.43
C11A G45U A84G C101U G122A	-2.1
G10A G36U G44U G61U C88U A95G U96A G120A	-7.26
G10U A111U	-3.44
G10U C62U C88U C89G A121G U132C	0.563
G10U C13G C73U G122U	-0.626
G10C A27U G39U	-3.03

Variant	polymerase ribozyme fitness (log ratio)
C11A G107C G113A C124A	-6.29
C11A G71A A91G A121U	0.674
G10A C15U G17A A41U C72U A105U G120A G122A	-5.83
G10U A37U G52U C56U C73G U116G	-4.51
C11G C15A G19U G69C C98A C114U	-6.19
G10A C15A C73U	-2.06
C11G C82U G117A	-0.654
C11A C13G U32C A50U G93U U96G U112A U131G	-4.75
C11A A111C	-1.42
C11A G36A G61U G128A	-4.02
C11A C85U G120U	0.755
C11A G36C	-2.32
C11A G57U	-1.56
G10U C49U C72G C82A C114A	-2.83
C11A A41U G71U C72U A100U A103G C115A	-6.78
G10U G17C G45U G93U C123G	-4.78
C11A C79U	-1.59
G10A G42U	-1.32
C11G C13G C56U G93A	-0.689
G10A C53G G69U C88U G110U	-0.0648
